This assay deals with T1, his-tagged human CDH6 extracellular region protein (hCDH6 ECD-his) (human, UniProt P55285 19-615).
T1 construct: also called Human CDH6-his; hCDH6-his; not shown: his tag
T1 sequence: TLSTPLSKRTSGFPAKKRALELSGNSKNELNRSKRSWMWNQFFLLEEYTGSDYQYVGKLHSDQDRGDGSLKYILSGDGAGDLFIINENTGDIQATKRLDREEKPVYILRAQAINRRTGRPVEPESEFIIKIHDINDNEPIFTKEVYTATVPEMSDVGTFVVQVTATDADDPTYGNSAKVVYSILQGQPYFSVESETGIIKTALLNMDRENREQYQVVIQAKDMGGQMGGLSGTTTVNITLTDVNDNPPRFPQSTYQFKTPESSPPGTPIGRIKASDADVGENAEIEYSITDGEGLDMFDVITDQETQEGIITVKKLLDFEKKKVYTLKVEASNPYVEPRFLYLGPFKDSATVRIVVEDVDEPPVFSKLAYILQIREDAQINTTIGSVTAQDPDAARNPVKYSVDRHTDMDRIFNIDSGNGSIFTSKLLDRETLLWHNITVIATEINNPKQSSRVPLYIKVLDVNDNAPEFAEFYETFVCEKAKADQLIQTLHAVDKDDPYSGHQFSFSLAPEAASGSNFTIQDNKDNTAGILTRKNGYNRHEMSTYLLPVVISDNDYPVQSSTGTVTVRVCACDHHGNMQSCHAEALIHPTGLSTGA
As to the kind of experiment: ELISA, coated antigen; ELISA, hCDH6 ECD-his coated at 1 µg/mL, antibody in solution; chimeric antibody run (Table 5). The method, then: Human CDH6 protein (hCDH6 ECD-his, conventionally synthesized), monkey CDH6 protein (cynoCDH6 ECD-his, conventionally synthesized; the cynoCDH6 ECD sequence was derived from Uniprot #A0A2K5TW62 (19-615)), and murine CDH6 protein (mCDH6 ECD-his, conventionally synthesized; the mCDH6 ECD sequence was derived from Uniprot #P97326 (19-615)) were diluted with PBS to a final concentration of 1 μg/mL, and added to a 96-well ELISA plate at 100 μL/well. The plate was incubated at 4° C. overnight. The next day, the plate was washed 3 times with a plate washing solution (PBS+0.01% (v/v) Tween 20), and a blocking buffer (PBS+0.01% (v/v) Tween 20+2% (w/w) BSA) was added for blocking at room temperature for 2 h. The blocking buffer was discarded, and the plate was washed 3 times. The chimeric antibodies were diluted with 1% BSA+PBS (purchased from Cytiva, Cat. No. SH30264.01) and added to the 96-well plate at 50 μL/well. After incubation at 37° C. for 2 h, the plate was washed 3 times with a plate washing solution. […] The plate was incubated at 37° C. for 1 h and then washed 5 times with a plate washing solution. […] OD450 nm values were read using a microplate reader (Biotek). Analysis was performed by the GraphPad Prism software, data were fitted, and EC50 values were calculated. […]
(An ELISA detects its analyte on a solid surface through an enzyme-linked reagent.)

A word on the EC50: it is the concentration at which the effect is half-maximal. A lower EC50 goes with greater potency.

B1: CHI-CDH6-14 (antibody, human IgG1, kappa, V domains shown)
VH: QIQLQQSGPELVKPGTSVKISCKASGYTFTDNYINWVRQRPGQGLEWIGWIYPGTGNSYYNEKFKGKATLTVDTSSSTAYMQFSSLTSEDSAVYLCASSYGDSFDYWGQGTTLTVSS
VL: DIQMTQTTSSLSASLGNRVTISCRASQDIRNYLNWYQQKPDGTFKLLISYTSRLHSGVPSRFSGSGSGTDYSLTVSNLEPEDIATYYCQQYSQLPWTFGGGSRLEIKR
notes: also called CHI-hCDH6-14; CH1-CDH6-14
As for B1, the EC50 was determined as 44 pM.

The values are drawn from US20260234242A1 (HAINAN SIMCERE ZAIMING PHARMACEUTICAL, published 2026).
